Laboratory results: the DeepSol protein solubility set

Experiment: soluble on expression in E. coli; label from the status in PepcDB or PDB records
In the case of “MQEKYNFGKVSSQHKNYSKIETMLRPKGFDKLDHYFRTELDIDLTDETIELLLNSVKAAFGKLFYGAEQRARWNGRDFIALADLNITKALEEHIKNFQKIEQDMGVDELLEYIAFIPPVEMNVGEDLKSEYRNIMGGLLLMHADVIKKATGERKPSREAMEFVAQIVDKVF”, the “soluble on expression in E. coli” value is reported as “soluble”.
In the case of “MGSDKIHHHHHHMIVPQEIYHPLYEDKEKFIILITGGRGSGKSFNASTFIERLTFELTPVEKIVHQILYTRYTMVSAGMSIIPEMMEKIELDGTTKYFKTTKTDIVNKMTKSRIMFRGIKTSSGNQTAKLKSIQGITTFVCDEAEEWTNEEEFDKIMLSIRKKGIQNRIIIIMNPCDSNHFIYKKYIENTHKLVEIDGVQVQISTHPNVLHIHTTYLDNLENLSPEFLKEVEDMKVNNPEKYAHVVIGRWADVAEGAVFKKWGIVDEFPAWAKKVAIGQDFGYTHDPSASIRCGIVDNALYLDEIDYRTGLLSSDIIKSLRPWGLKVIADSADPRLIQEIHNGGVKIYAVEKGAGSVNAGLDKMQGMEMYITKRSYNLQREYRKYVWAKDKDGNYINEPEDHDNHGIDAVRYYVLGELLGKIQKPKDLTGIFTH”, the “soluble on expression in E. coli” value is reported as “not soluble”.
With “MRLFLLLLSLLLISITTAFALDKPDGSNSIEDQTALFFGKDDRTAVTNSRQWPWEAIGQVETASGNPCTATLISPRLVLTAGHCVLTPPGNIDQAVALRFISDKGHWKYQITDLKTRVDAKLGQKLKADGDGWIVPPAAAAYDFALIQLTNAAPIPIKPLPLWEGTANELTKALKLVNRKVTQAGYPLDNLNTLYKHEDCLVTGWAQQGVLAHQCDTLPGDSGSPLLLKNGNSWSLIAIQSSAPAAKERYLADNRALSVTAINNRLKKLVNKIADTTQ” the “soluble on expression in E. coli” value was “not soluble”.
With “MSENLTMSELMDSFELKHFHKGEIVKGKVISVKNDEIIVNIGHFADGVVPRNEISNDKNFDINSINVDDDIFVMVLSGDDGEGNVLLSKKRADAIKVCDDLKEAFEEEKSIKVSLKEVVKGGIVGDFNGLRVFMPASQCAGRRIENLEELVGKTLEVRVIEFNKENRKVVVSRRVIDEEIRNNEKKALWSSIKEGEKRKGKVTRLAKFGAFVDIGGVEGLVHLSDMSWSRVHKPEEVVSVGDEVEVFVSEVDMDRERIALSLKDVIKNPWETLEGLKVGNVVLGKVTNFIKVGAFVEVLPGIEGLVHISEITDENIAKPSDILELGQEVKVKILNIDDENKKMSLSIKDAVETSNEYMQYNDEEEGYSLADLFKGLNLLEHHHHHH” the “soluble on expression in E. coli” value was “soluble”.
With “MNRYRQLAELFKTQIQQNTWRAGEKLPSVRVTSRNHSVSAGTVLQAYQLLEAQGWVAAKPQSGYFVTAELDRLEPSPPATSVYRSNINDELYDYLKNQASPDAMKFGSAFPDPALFPLDALNRNLASSGRKMGPETLLDNLPPGSESLRRLIAQRYIQQGMVLTHDDIVITSGALEALNLSLQAVTQPGDTIVVESPTFYGALQAIERLGLKAIEISVDPRIGHSLQQIEAAFTDHDVRACWLMTNFHNPTGMSLNDEQKQRIVELADKHDVYLIEDDVYSELYFSNKKPSSLRTFDTQDRVLHCGSFSKSLCPGYRLGWVVNKRFNEHLQKLQLISTLSGSAPIQQGIAHYLQNDSYDNHLRKLRKNLEQRQSTFIELIGKYFPKSIHYTQPEGGYFLWVELPESKCGKAIYQKLLEDNITVAFGKLFSVGTDYENYLRLNTSLPCNDELEEAVKTIGELLH” the “soluble on expression in E. coli” value was “not soluble”.
With “MGSDKIHHHHHHMISERMERQLDFIVAIDALKDITRQSITTGSRRQENDAEHSWHLAVMAMILSEYAEDQTIDIAKVISMVLIHDLVEIYAGDTYCYDEKGYEDKAEREQEAADRLFNMLPEDQAQRMMSLWQEFEEMETKEAAFAATLDRFQPLLLNYNTEGHTWQRPGITSEKVLKRTEIAKEKVPQLYVYIERLIQRSIERGMLKP” the “soluble on expression in E. coli” value was “not soluble”.
In the case of “MYSLLTLLFVLFFSGSTLLVQCGGKKKGATSAEGKSSTMGPAPGGAPAAASAQGEPEEKE”, the “soluble on expression in E. coli” value is reported as “not soluble”.
For “MDRKIVQLIHNFSGTEKLKAAVFSHDEQCFFDFVSFDELNSKLTGFLLFDSLEKLFKLVETIQQKRSWLYVDELWLINTATENQQLNEVSVWLVKKELAQVGVLTQLDTSLVKLLMASKNTDSALYNTYIKPVELQQFTQTPAPDNVNAEQSHLTLESTTDLNNSQLANTPALWEVEQTTQELLPTMDFSKFIDELDQITKNFSDLELEPLSFNEGFDEWNQE”, the “soluble on expression in E. coli” value was “soluble”.
In the case of “MKLYYKVGAASLAPHIILSEAGLPYELEAVDLKAKKTADGGDYFAVNPRGAVPALEVKPGTVITQNAAILQYIGDHSDVAAFKPAYGSIERARLQEALGFCSDLHAAFSGLFAPNLSEEARAGVIANINRRLGQLEAMLSDKNAYWLGDDFTQPDAYASVIIGWGVGQKLDLSAYPKALKLRERVLARPNVQKAFKEEGLN”, the “soluble on expression in E. coli” value is reported as “soluble”.
For “MGSDKIHHHHHHVTIEIRQLRYALMSADLRSFSGAASRLNVKQATLSRSVLQLEDRLGIKLFERTTRGAEPTETGKVFLETARRIITDLENLQTTARAVSYGEQGRFAVGYCSSLMAGHLKAAFSDYLTRFPDVQFDGVEGDPDKLCSDLRAGTIDVAIAPLGSEEQGIASRPVWSERLVAALYPEHPLLEASRIYWGDLRREIFVVPRKGIGQMIRNMITARLTGQGYRPNIITQETSLESVLSMVPVGRFITIATEASMGVAWPELQFRDIYDNGGTARIDFALYWREDNENPALQRFFTMINERYPA”, the “soluble on expression in E. coli” value was “not soluble”.
With “MSLRIPDKNNLMIYELLLRDFTATGDLNGAMEKIGYLKSLGFNAVELMPVQEFDGNDSWGYNPCFHFALDKAYGTDHMYKAFIDKCHEVGMAVLFDVVYNHASGSHPFARLYWDTKNNRTAADNPWFNVKEPHPYGVFHDFNHDSPLVRAFVKRNLKFLLEEYRIDGFRFDMTKGFTQNSSTEATAGSYDASRIAILKDYNETVREVNPEAVVILEHFCDEKEESELAEEGMQLWRNLNNAYCQSAMGYPSNSDFTPLVTFGTTMPYGGWVGFMESHDEERTAFKQIAYGEGPLKSDINVRMKQLAANASFFFTAPGPKMVWQFGEMGYDVSIEEGGRTGRKPLHWEYLDNEARKGLCNTYAKLLKLRREHSELFNPGSTFSWLVKTANWTGGRFLTLAATNGKRLVVVGNFTAKPIEAITSFPVTGVWTNYLDGTKLHVTSIPTGLMIPAHECRVYINEGHHHHHH” the “soluble on expression in E. coli” value was “not soluble”.
With “MEIIRPMRVAIVAESFLPNVNGVTNSVLRVLEHLKANGHDALVIAPGARDFEEEIGHYLGFEIVRVPTVRVPLIDSLPIGVPLPSVTSVLREYNPDIIHLASPFVLGGAAAFAARQLRIPAIAIYQTDVAGFSQRYHLAPLATASWEWIKTVHNMCQRTLAPSSMSIDELRDHGINDIFHWARGVDSKRFHPGKRSVALRKSWDPSGAKKIVGFVGRLASEKGVECLAGLSGRSDIQLVIVGDGPEAKYLQEMMPDAIFTGALGGEELATTYASLDLFVHPGEFETFCQAIQEAQASGVPTIGPRAGGPIDLINEGVNGLLLDVVDFKETLPAAAEWILDDSRHSEMCAAAWEGVKDKTWEALCTQLLQHYADVIALSQRIPLTFFGPSAEVAKLPLWVARALGVRTRISIEALEHHHHHH” the “soluble on expression in E. coli” value was “soluble”.
With “MGSDKIHHHHHHMEKRQSIKDIEANGDVRGLFLLGAATLNQARNGPFWRLELRDATGTMEAKIWSPQSQAYPDLAPGQIVDLEGRSGTYRDRVEVTVERLRTLGEAEQASLDISQFLPASERPAAEMLEELERLCREVFTHAPWRKFVLGVLRDDDVRPRLLVAPAAKAVHHAFVGGLVEHILSVTRLCLHLAEHYPELDRQALVAGAIFHDIGKVWELTGGLANDYSDEGRLLGHIHIGLERIEPHLRKSGLEPELVMHFKHLILSHHGELEYGSPKRPKTAEAMVLHYADNIDAKMAQMRGLFANMGEGETGWSPYQNTLQRFLYRPARTPEPVATTRRRRGTPEVEQCSLLSKA” the “soluble on expression in E. coli” value was “not soluble”.
With “MDAALRRLQTFLSTIPQCDHTKYEGHYQQVFYIIFSLLGYYVDVEVRTSRGRVDVVLRTEATLYVMELKLDKNATVAMEQINLKNYPERFALCGLPVVKVAVNFDSESGTLGDWMIEK” the “soluble on expression in E. coli” value was “not soluble”.
With “MELLCPAGNLPALKAAIDNGADAVYIGLKDDTNARHFAGLNFTDKKLQEAVNYVHSRKRKLHIAINTFAHPDGYARWQRAVDMAAQLGADALILADLAMLEYAAERYPQVERHVSVQASATNDEAIRFYQRHFDVARVVLPRVLSMHQVKQLSRTSPVPLEVFAFGSLCIMAEGRCYLSSYLTGESPNTVGACSPARFVRWQQTPQGMESRLNDVLIDRYEDHENAGYPTLCKGRYRVDGQRYHALEEPTSLNTLELLPELFAANIASVKIEGRQRSPAYVSQVAKVWRQAIDLYQANPAQFAAKAEWMEQLGAMSEGTQTTLGAYHRKWQ” the “soluble on expression in E. coli” value was “not soluble”.
For “MTPRKPAVKKEVKEEEPGAPGKEGAAEGPLDPSGYNPAKNNYHPVEDACWKPGQKVPYLAVARTFEKIEEVSARLRMVETLSNLLRSVVALSPPDLLPVLYLSLNHLGPPQQGLELGVGDGVLLKAVAQATGRQLESVRAEAAEKGDVGLVAENSRSTQRLMLPPPPLTASGVFSKFRDIARLTGSASTAKKIDIIKGLFVACRHSEARFIARSLSGRLRLGLAEQSVLAALSQAVSLTPPGQEFPPAMVDAGKGKTAEARKTWLEEQGMILKQTFCEVPDLDRIIPVLLEHGLERLPEHCKLSPGIPLKPMLAHPTRGISEVLKRFEEAAFTCEYKYDGQRAQIHALEGGEVKIFSRNQEDNTGKYPDIISRIPKIKLPSVTSFILDTEAVAWDREKKQIQPFQVLTTRKRKEVDASEIQVQVCLYAFDLIYLNGESLVREPLSRRRQLLRENFVETEGEFVFATSLDTKDIEQIAEFLEQSVKDSCEGLMVKTLDVDATYEIAKRSHNWLKLKKDYLDGVGDTLDLVVIGAYLGRGKRAGRYGGFLLASYDEDSEELQAICKLGTGFSDEELEEHHQSLKALVLPSPRPYVRIDGAVIPDHWLDPSAVWEVKCADLSLSPIYPAARGLVDSDKGISLRFPRFIRVREDKQPEQATTSAQVACLYRKQSQIQNQQGEDSGSDPEDTY”, the “soluble on expression in E. coli” value was “soluble”.
In the case of “MAHHHHHHMDGGGRVAGTGVQLKPATVHGSVECVEFDKLSGSSNLFALQTMPVYFGASRVPWRLLDVGVKERKPASESGSAGAAMWLALVRFPPRGACPMPAAMGGWGVR”, the “soluble on expression in E. coli” value is reported as “not soluble”.
With “MNYFVGNSLGVNLTGIEKAIINRLNLFKEMGRPAQCVFLSWNRYLYRNAQNYITSSDYINMYDFFQEATYLERNEPFDWLSYWTDECHYTLKHVENSHDFRIYDQERFLMYAHFQDPKYRILDYVNHFDSQRRKVKRDFYDVRGFLSCSRILVDKQQTLCEFFYNPEGDTKLEKYFSYKDGKPEVQKIIVYYANKQYFFNNETELGAFFIKQLYQHGDLFFSDRNVYTAPIFNLTPESIPVVAVLHSTHIKNIDALDSSPFKNVYKAMFENLSRYRAIIVSTEQQKLDVEKRINHTIPVVNIPVGYSETIDTPVQTLDQRSVKLISVARYSPEKQLHQQIELIKRLVSYVPKIELHMYGFGSESKKLNELIQKYGLENHVYLRGFLSNLDQEYSDAYLSLITSNMEGFSLALLESLAHGVPVISYDIKYGPNELITSDFNGYLITKNDEDALFDKVKYVIDHPEVQQRLSKGSLAKAQQYSKASLIKQWDQFVRLI” the “soluble on expression in E. coli” value was “not soluble”.
For “MAHHHHHHMANRTDASAIKNFGSNPQYLISNIIRSKIYDSPYWKEKCFALTSESIIDQAINLKYVGGTYGGNRKPTRFLCLILKLLQIQPDKDIIYEYIKNEDFVYLRALGIFYLRLIGKSLEVYNHLEPILFDYRKIRMRLQNGTFEKIYMDVFVDNCLILNNFLDVDFPTLTKRQVLEENNLLQRKNLEYYKALLNISSDNELFKNNEDTTHNKNKEINKNKNEYKQRDMLERHKKINKYSSEDDHNYYHKKEGNYDKNKKHNKIYNHKYNNKYDDEERRHHSDYSSDMDRKSRKKEKKRTHSKYDHKKKKEKRNYSSDSKHSFTSSEYSVQNKKEEHDKKKKKLFFLKKQKKKNYHSSSQSNHSYDENKKDELSIDKWNEIRKELGMKPLK”, the “soluble on expression in E. coli” value was “soluble”.
